These results are taken from US20050064514A1.

Where “and” joins values, the source holds several entries; their conditions need not be identical. Identical values can stand only once.

For experiment [1], the target named is soluble monomeric FcγRIIIA-linker-AVITAG (158V allele) (human) (UniProt P08637). Put plainly: FACS, 0.1 µM biotinylated FcγRIIIA then 0.1 µM unlabeled FcγRIIIA.
Experiment [2] shares this target. In words: BIAcore.
For experiment [3] the target is unchanged. In words: BIAcore separate fit.
The target of experiment [4] is soluble FcγRIIB (form used in the ELISA not stated) (human) (UniProt P31994). In words: ELISA.
soluble FcγRIIB (form used in the ELISA not stated) (human), sequence (P31994 43-180 limits assumed, form in doubt): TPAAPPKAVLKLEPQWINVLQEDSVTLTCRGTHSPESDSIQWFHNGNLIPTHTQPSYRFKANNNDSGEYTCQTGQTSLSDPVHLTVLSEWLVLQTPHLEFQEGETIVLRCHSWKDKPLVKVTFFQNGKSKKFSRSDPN
Experiment [5] deals with soluble monomeric FcγRIIIA-linker-AVITAG (158V allele) (human) (UniProt P08637). In words: ELISA.
Experiment [6] concerns the target FcγRIIB-Fc fusion protein (soluble dimeric FcγRIIB) (human) (UniProt P31994). Put plainly: BIAcore.
The target is the same in experiment [7]. Put plainly: BIAcore separate fit.
The target of experiment [8] is wild type CH1-CH3 Fc fusion protein displayed on yeast (pYD-CH1) (Saccharomyces cerevisiae; human) (UniProt P32781). In words: FACS titration 1.4 to 0.0006 µM, mean fluorescence, nonlinear regression.

soluble monomeric FcγRIIIA-linker-AVITAG (158V allele) (human), sequence (P08637 17-203 F176V limits assumed, form in doubt): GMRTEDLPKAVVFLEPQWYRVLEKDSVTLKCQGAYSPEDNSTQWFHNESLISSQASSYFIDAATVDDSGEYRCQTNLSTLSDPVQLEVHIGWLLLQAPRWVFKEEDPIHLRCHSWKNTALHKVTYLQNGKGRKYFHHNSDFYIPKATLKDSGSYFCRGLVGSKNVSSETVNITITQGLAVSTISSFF
FcγRIIB-Fc fusion protein (soluble dimeric FcγRIIB) (human), sequence (P31994 43-217): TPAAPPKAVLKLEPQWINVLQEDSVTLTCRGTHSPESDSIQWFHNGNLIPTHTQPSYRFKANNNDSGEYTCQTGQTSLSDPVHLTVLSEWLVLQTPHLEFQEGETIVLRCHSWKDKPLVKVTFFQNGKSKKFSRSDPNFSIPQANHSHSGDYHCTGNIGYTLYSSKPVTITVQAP
P396L Fc variant displayed on the yeast surface, sequence (P32781 19-87, stated change not applied): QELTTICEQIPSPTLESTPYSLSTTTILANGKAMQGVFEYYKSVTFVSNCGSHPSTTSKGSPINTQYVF

“P396L Fc variant displayed on the yeast surface (from UniProt P32781 19-87)” showed a loss of cell staining after 1 minute with unlabeled receptor in experiment [1] of 50%. Turning to “ch4-4-20 K288M, K334E (from UniProt P01857 1-330) (antibody)”, the Kd in experiment [2] and in experiment [3] was 75.4 nM in each case. Turning to “chimeric 4-4-20 anti-fluorescein monoclonal antibody, wild type Fc”, the ELISA binding relative to wt in experiment [4] and in experiment [5] was 1 x each time. Also, the ELISA, OD in experiment [4] is 0.4 OD; in experiment [5], 0.5 OD. For the same substance, the Kd in experiment [6] amounted to 94 nM; in experiment [7], 61.4 nM. The values for the off-rate (koff) in experiment [6] and in experiment [7] were 0.094 s⁻¹ and 0.085 s⁻¹, respectively. “ch4-4-20 Mut 6 (S219V) (from UniProt P01857 1-330) (antibody)” showed an ELISA, OD in experiment [5] of 0.6 OD. Further, in experiment [3], the Kd is 264 nM. Consider “ch4-4-20 P247L, N421K (from UniProt P01857 1-330) (antibody)”, for which, in experiment [2], the Kd was 62 nM.

Turning to “ch4-4-20 E293V, Q295E, A327T (from UniProt P01857 1-330) (antibody)”, in experiment [2], the equilibrium dissociation constant (Kd) came out at 195 nM. This Kd lies about 3.1-fold higher than the previous one.

“ch4-4-20 H268N, P396L (from UniProt P01857 1-330) (antibody)” yielded a Kd in experiment [2] of 178 nM. On to “ch4-4-20 K248M (from UniProt P01857 1-330) (antibody)”, for which, in experiment [2], the Kd was 154 nM and 180 nM. For the substance “ch4-4-20 Y319F, P352L, P396L (from UniProt P01857 1-330) (antibody)”, the Kd in experiment [2] came out at 125 nM. Turning to “ch4-4-20 K288N, A330S, P396L (from UniProt P01857 1-330) (antibody)”, the Kd in experiment [2] and in experiment [3] was 128 nM each time.

Take “ch4-4-20 K334E, R292L (from UniProt P01857 1-330) (antibody)”: the Kd in experiment [2] and in experiment [3] was 70.2 nM each time. As to “ch4-4-20 K334E, T359N, T366S (from UniProt P01857 1-330) (antibody)”, in experiment [2], the Kd came to 55.2 nM. In other words, the double-digit nanomolar range. In experiment [8], “soluble FcγRIIIA tetrameric complex (from UniProt P08637 17-203) (receptor)” gave a Kd of 6 nM. That is a single-digit nanomolar value. Consider “ch4-4-20 Mut25(0225) (MgFc 25: E333A, K334A, S298A) (from UniProt P01857 1-330) (antibody)”, for which the dissociation constant (Kd) in experiment [3] was 48.6 nM. Consider “ch4-4-20 G316D, A378V, D399E (from UniProt P01857 1-330) (antibody)”, for which the Kd in experiment [2] was 72 nM.

Turning to “ch4-4-20 V379M (from UniProt P01857 1-330) (antibody)”, the Kd worked out at 160 nM in experiment [2] and 214 nM in experiment [3].
